Experimental data from patent publication US20260055173A1 (published 2026).

Tests used:
[1] = molecular target: T1, human PD-1 (ACRO, Fc tag) (human, UniProt Q15116 25-167); assay: competition ELISA: human PD-1 (Fc tag) coated, antibody mixed with human PD-L1 (His tag); text: 'except for #48, which only bound to VEGF'
T1 construct: not shown: Fc tag
Method: (§1) An ELISA plate was coated with 1 ug/mL of human PD-1 (ACRO, Fc tag) overnight, washed and blocked. […] Then the plate was added with HRP-labeled anti-His antibody, and incubated for 1 hour. After TMB solution was added for color development, the OD450 absorbance value was read on a microplate reader (see Table 16).

[2] = molecular target: T2, human PD-1 (ACRO, His tag) (human, UniProt Q15116 25-167); assay: dual (bridging) ELISA: human PD-1 (His tag) coated, antibody, then biotinylated human VEGF; 'A single targeting antibody failed to bind to two targets simultaneously'
T2 construct: not shown: His tag
Method: (§2) The order of the binding to VEGF and PD-1 was changed for dual ELISA detection. A 96-well ELISA plate was coated with 1 μg/mL human PD-1 (ACRO, His tag) overnight, washed and blocked for 1 hour. […] TMB solution was added for color development, and the OD450 nm absorbance value was read on a microplate reader.

[3] = molecular target: T3, human VEGF (ACRO, His tag) (human, UniProt P15692-4 27-191, limits assumed); assay: ELISA, human VEGF (His tag) coated, anti-human IgG Fc-HRP
T3 construct: not shown: His tag
Method: (§3) The binding of the antibody to human PD-1 was detected by ELISA. 1 μg/mL human PD-1 (ACRO, His tag) was coated on an ELISA plate overnight and blocked. Subsequently, the plate was added with gradient dilutions of the bispecific antibody and the control antibody, incubated and washed. Then, the plate was added with HRP-labeled anti-human IgG Fc secondary antibody, incubated and washed. After TMB solution was added for color development, the OD450 absorbance value was read on a microplate reader (see Table 12). […] Subsequently, the plate was added with gradient dilutions of the sample to be tested and the control antibody, incubated and washed. Then, the plated was added with HRP-labeled anti-human IgG Fc secondary antibody, incubated and washed. After TMB solution was added for color development, the OD450 absorbance value was read on a microplate reader (see Table 13). […] (The control substances were all obtained by in-house expression and purification)

[4] = molecular target: T2, human PD-1 (ACRO, His tag); assay: dual (bridging) ELISA: human PD-1 (His tag) coated, antibody, then biotinylated human VEGF, streptavidin-HRP
Method: as §2

[5] = molecular target: T4, biotin-labeled human VEGF (ACRO, biotinylated protein) (human, UniProt P15692-4 27-191, limits assumed, biotinylated (site not stated)); assay: competition ELISA: human VEGFR2 (Fc tag) coated, antibody mixed with biotinylated human VEGF, streptavidin-HRP
Method: (§4) ELISA plates were respectively coated with 2 μg/mL human VEGFR1 and 5 μg/mL human VEGFR2 (in-house constructed and expressed, Fc tag) overnight, washed and blocked. […] Then the plates were added with HRP-labeled streptavidin and incubated for 1 hour. After TMB solution was added for color development, the OD450 nm absorbance value was read on a microplate reader.

[6] = molecular target: T4, biotin-labeled human VEGF (ACRO, …); assay: competition ELISA: human VEGFR1 (Fc tag) coated, antibody mixed with biotinylated human VEGF, streptavidin-HRP
Method: as §4

[7] = molecular target: T2, human PD-1 (ACRO, His tag); assay: ELISA, human PD-1 (His tag) coated, anti-human IgG Fc-HRP
Method: as §3

[8] = molecular target: T1, human PD-1 (ACRO, Fc tag); assay: competition ELISA: human PD-1 (Fc tag) coated, antibody mixed with human PD-L1 (His tag), anti-His-HRP
Method: as §1

[9] = molecular target: monkey PD-1 (ACRO, His tag) (monkey, UniProt B0LAJ3 25-170); assay: ELISA, monkey PD-1 (His tag) coated, anti-human IgG Fc-HRP
Method: The binding of candidate molecules and competitor to antigens of different species was detected by ELISA. […] The binding of antibodies to monkey PD-1 was detected by ELISA. An ELISA plate was coated with 1 μg/mL monkey PD-1 (ACRO, His tag) overnight and blocked. Subsequently, the plate was added with gradient dilutions of the sample to be tested and the control antibody, incubated and washed. Then, the plate was added with HRP-labeled anti-human IgG Fc secondary antibody, incubated and washed. After TMB solution was added for color development, the OD450 absorbance value was read on a microplate reader (see Table 15).

VEGF = assay: cell-based or functional assay
[10] = molecular target: human VEGF (Sino Biological, no label) (human, UniProt P15692-4 27-191, limits assumed); assay: dual (bridging) ELISA: human VEGF (no label) coated, antibody, then human PD-1 (His tag), anti-His-HRP
Method: Biological, no label) overnight, washed and blocked for 1 hour. Subsequently, the plate was added with gradient dilutions of the test antibody, incubated for 2 hours, then added with 1 μg/mL of human PD-1 (ACRO, His tag), incubated for 2 hours, washed, and incubated with HRP-labeled anti-His antibody for 1 hour. After TMB solution was added for color development, the OD450 nm absorbance value was read on a microplate reader.

mouse VEGF-A = molecular target: T5, mouse VEGF-A (mouse, UniProt Q00731-2 27-190, limits assumed); assay: ELISA, VHH-Fc expression supernatant on mouse VEGF-A
T5 sequence (looked up): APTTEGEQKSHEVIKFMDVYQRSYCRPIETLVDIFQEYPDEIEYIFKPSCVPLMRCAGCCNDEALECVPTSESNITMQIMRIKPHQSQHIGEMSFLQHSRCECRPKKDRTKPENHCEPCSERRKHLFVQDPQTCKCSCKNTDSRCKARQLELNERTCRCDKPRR

human VEGF-A = human VEGF-A (human, UniProt P15692-4 27-191, limits assumed); assay: ELISA, VHH-Fc expression supernatant on human VEGF-A

Sequence of monkey PD-1 (ACRO, His tag) (B0LAJ3 entry or part of it limits assumed, form in doubt): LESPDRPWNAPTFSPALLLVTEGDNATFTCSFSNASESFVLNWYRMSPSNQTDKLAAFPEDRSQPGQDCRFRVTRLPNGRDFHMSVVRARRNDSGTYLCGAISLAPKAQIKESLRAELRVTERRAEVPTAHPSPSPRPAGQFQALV
T2 sequence (Q15116 25-167 limits assumed): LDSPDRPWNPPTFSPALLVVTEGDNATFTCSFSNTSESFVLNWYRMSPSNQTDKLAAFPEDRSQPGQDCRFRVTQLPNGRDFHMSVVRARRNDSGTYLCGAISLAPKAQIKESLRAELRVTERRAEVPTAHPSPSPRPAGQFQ
T1 sequence (Q15116 25-167 limits assumed): as above

Binder | binding result [1] | binding result [2] | EC50 [3] | TOP OD [3] | TOP OD [4] | IC50 [5] | IC50 [6] | EC50 [7] | TOP OD [7] | IC50 [8] | EC50 [9] | TOP OD [9] | EC50 [4] | maximum inhibition rate (HUVEC proliferation) (VEGF) | EC50 [10] | EC50 (mouse VEGF-A) | EC50 (human VEGF-A)
Strain #48 VHH (VHH, not shown: a dimerising Fc or GST, Humanized, stabilized variant of #6 (11 Kabat-numbered mutations)) VHH: EVQLLESGGGLVQPGGSLRLSCAASGFTFSTSTMSWYRQAPGKERELVSFITSAGATTYYADSVKGRFTMSRDNSKNTVYLQMNSLRAEDTAVYYCRALVTLWNVYWGQGTLVTVSS | no binding | no binding | 0.608 nM | 3.09 OD450 | 0.061 OD450 | 5.84 nM | – | – | – | – | – | – | – | – | – | – | –
#16 bispecific antibody (bispecific antibody, human IgG1, kappa, Pembrolizumab-based anti-PD-1 IgG with #48 VHH at the C-terminus of the heavy chain; 2+2 valency; functionally silent IgG1 Fc (AEASS)) heavy: QVQLVQSGVEVKKPGASVKVSCKASGYTFTNYYMYWVRQAPGQGLEWMGGINPSNGGTNFNEKFKNRVTLTTDSSTTTAYMELKSLQFDDTAVYYCARRDYRFDMGFDYWGQGTTVTVSSASTKGPSVFPLAPSSKSTSGGTAALGCLVKDYFPEPVTVSWNSGALTSGVHTFPAVLQSSGLYSLSSVVTVPSSSLGTQTYICNVNHKPSNTKVDKKVEPKSCDKTHTCPPCPAPEAEGAPSVFLFPPKPKDTLMISRTPEVTCVVVDVSHEDPEVKFNWYVDGVEVHNAKTKPREEQYNSTYRVVSVLTVLHQDWLNGKEYKCKVSNKALPSSIEKTISKAKGQPREPQVYTLPPSREEMTKNQVSLTCLVKGFYPSDIAVEWESNGQPENNYKTTPPVLDSDGSFFLYSKLTVDKSRWQQGNVFSCSVMHEALHNHYTQKSLSLSPGEVQLLESGGGLVQPGGSLRLSCAASGFTFSTSTMSWYRQAPGKERELVSFITSAGATTYYADSVKGRFTMSRDNSKNTVYLQMNSLRAEDTAVYYCRALVTLWNVYWGQGTLVTVSS light: EIVLTQSPATLSLSPGERATLSCRASKGVSTSGYSYLHWYQQKPGQAPRLLIYLASYLESGVPARFSGSGSGTDFTLTISSLEPEDFAVYYCQHSRDLPLTFGGGTKVEIKRTVAAPSVFIFPPSDEQLKSGTASVVCLLNNFYPREAKVQWKVDNALQSGNSQESVTEQDSKDSTYSLSSTLTLSKADYEKHKVYACEVTHQGLSSPVTKSFNRGEC | – | – | 0.579 nM | 1.75 OD450 | 3.65 OD450 | 3.25 nM | 0.507 nM | 0.114 nM | 2.58 OD450 | 2.53 nM | 0.171 nM | 3.38 OD450 | 0.117 nM | ~60% | 0.326 nM | – | –
Strain #6 VHH (Fc fusion, also called strain 6 (#6); not shown: Fc of the VHH-Fc construct) QVQLQESGGGLVQPGGSLRLSCAASGFTFSTSTMSWYRQAPGKERELVAFITSAGATTNYADSVKDRFTMSRDNDKNTVYLQMNVLKPEDTAMYYCRALVTLWNVYWGQGTQVTVSS | – | – | – | – | – | – | – | – | – | – | – | – | – | – | – | 6.46 ng/mL | 9.33 ng/mL
Bevacizumab (antibody, V domains shown) VH: EVQLVESGGGLVQPGGSLRLSCAASGYTFTNYGMNWVRQAPGKGLEWVGWINTYTGEPTYAADFKRRFTFSLDTSKSTAYLQMNSLRAEDTAVYYCAKYPHYYGSSHWYFDVWGQGTLVTVSS VL: DIQMTQSPSSLSASVGDRVTITCSASQDISNYLNWYQQKPGKAPKVLIYFTSSLHSGVPSRFSGSGSGTDFTLTISSLQPEDFATYYCQQYSTVPWTFGQGTKVEIK | – | – | – | – | 0.067 OD450 | – | – | – | 0.151 OD450 | – | – | 0.127 OD450 | – | – | – | – | –
